# According to patent US9695461B2, “Method for adapting a hydrolytic enzyme to a component that stabilizes the hydrolytic enzyme” (Henkel AG & Co. KGaA, priority 2011, dated 2017):
# Numbering of substitutions follows the chain as printed. In names and notes the source's numbering stands.
# B1: S166: protease according to SEQ ID NO: 3 used as the hydrolytic enzyme (starting enzyme) (protein, listed as Bacillus lentus)
# chain: AQSVPWGISRVQAPAAHNRGLTGSGVKVAVLDTGISTHPDLNIRGGASFVPGEPSTQDGNGHGTHVAGTIAALNNSIGVLGVAPSAELYAVKVLGADGEGAISSIAQGLEWAGNNGMHVANLSLGSPSPSATLEQAVNSATSRGVLVVAASGNSGASSISYPARYANAMAVGATDQNNNRASFSQYGAGLDIVAPGVNVQSTYPGSTYASLNGTSMATPHVAGAAALVKQKNPSWSNVQIRNHLKNTATSLGSTNLYGSGLVNAEAATR
# B2: S166A: protease of SEQ ID NO: 3 with amino acid substitution S166A in the count according to SEQ ID NO: 1 (protein, listed as Bacillus lentus)
# chain: B1 chain with S160A
# B3: S166V: protease of SEQ ID NO: 3 with amino acid substitution S166V in the count according to SEQ ID NO: 1 (protein, listed as Bacillus lentus)
# chain: B1 chain with S160V
# B4: S166Y: protease of SEQ ID NO: 3 with amino acid substitution S166Y in the count according to SEQ ID NO: 1 (protein, listed as Bacillus lentus)
# chain: B1 chain with S160Y
# B5: A187D/F189R: protease of SEQ ID NO: 3 with amino acid substitutions A187D and F189R in the count according to SEQ ID NO: 1 (protein, listed as Bacillus lentus)
# chain: B1 chain with A181D, F183R
# B6: A187D: protease of SEQ ID NO: 3 with amino acid substitution A187D in the count according to SEQ ID NO: 1 (protein, listed as Bacillus lentus)
# chain: B1 chain with A181D
# B7: F189R: protease of SEQ ID NO: 3 with amino acid substitution F189R in the count according to SEQ ID NO: 1 (protein, listed as Bacillus lentus)
# chain: B1 chain with F183R
# B8: Q191R: protease of SEQ ID NO: 3 with amino acid substitution Q191R in the count according to SEQ ID NO: 1 (protein, listed as Bacillus lentus)
# chain: B1 chain with Q185R
# B9: S166G: protease of SEQ ID NO: 3 with amino acid substitution S166G in the count according to SEQ ID NO: 1 (protein, listed as Bacillus lentus)
# chain: B1 chain with S160G
# B10: S166G/Q191R: protease of SEQ ID NO: 3 with amino acid substitutions S166G and Q191R in the count according to SEQ ID NO: 1 (protein, listed as Bacillus lentus)
# chain: B1 chain with S160G, Q185R
# How the values were obtained:
# [1] = test system: protease according to SEQ ID NO: 3; assay: Relative proteolytic activity with reversible inhibitor in liquid surfactant preparation (Example 1); format: biochemical; conditions: 50% conc. surfactant preparation, 0.92 mM AAPF, 25° C., pH 8.6, relative to same protease without inhibitor; for relative activity, 3-HPBA: 3-HPBA in amount inhibiting starting enzyme by 20-40%; for relative activity, 4-FPBA: 4-FPBA in amount inhibiting starting enzyme by 20-40%; for relative activity, Boric acid: boric acid in amount inhibiting starting enzyme by 20-40%; for relative activity, BMA: benzylmalonic acid in amount inhibiting starting enzyme by 20-40%
# Text: The relative activity to be determined in process step c) of the hydrolytic enzyme modified in process step b) is given by [measured activity of the hydrolytic enzyme modified in process step b) in the presence of the component that stabilizes the hydrolytic enzyme] divided by [measured activity of the hydrolytic enzyme modified in process step b) in the absence of the component that stabilizes the hydrolytic enzyme] multiplied by 100.
# The relative activity of the starting enzyme to be determined in process step c) is given by [measured activity of the starting enzyme in the presence of the component that stabilizes the hydrolytic enzyme] divided by [measured activity of the starting enzyme in the absence of the component that stabilizes the hydrolytic enzyme] multiplied by 100.
# The nucleic acid sequence of the hydrolytic enzyme present on a plasmid was modified individually or in combination as indicated in Tables 1 and 2 using site directed mutagenesis by means of specific, adapted primers using a Phusion Hot Start Polymerase at the positions S166, A187, F189 or Q191 in the counting according to SEQ ID NO: 1, and the resulting variants were transformed into a suitable host. Active clones were selected by means of a protease-sensitive medium and the DNA sequence was sequenced after isolation of the plasmid for identification purposes. The modified proteases were expressed in the Bacillus host and prepared for the activity determination.
# The activity was determined in a liquid preparation that was constituted as follows (all data in wt %): 0.3-0.5% xanthan, 0.2-0.4% defoamer, 6-7% glycerin, 0.3-0.5% ethanol, 4-7% FAEOS (fatty alcohol ether sulfate), 24-28% non-ionic surfactants, 1-2% sodium citrate (dihydrate), 2-4% soda, 14-16% cocoanut fatty acids, 0.5% HEDP (1-hydroxyethane-(1,1-diphosphonic acid)), 0-0.4% PVP (polyvinyl pyrrolidone) 0-0.5% optical brightener, 0-0.001% % colorant, the remainder being demineralized water.
# To a 50% conc. liquid preparation of the liquid surfactant preparation were added 0.92 mM AAPF. The reversible inhibitor to be tested was also comprised in the required amount to inhibit the starting enzyme by 20-40%. 20 μl of the respective protease (starting enzyme as well as modified protease variants) were added and the proteolytic activity determined from the release of the chromophore para-nitroaniline (pNA) from the substrate suc-L-Ala-L-Ala-L-Pro-L-Phe-p-nitroanilide (suc-AAPF-pNA). The protease cleaves the substrate and releases pNA. The released pNA causes the extinction at 410 nm to increase; the change in extinction as a function of time is a measure of the enzymatic activity (see Del Mar et al., 1979). The measurement was carried out at a temperature of 25° C., at pH 8.6 and a wavelength of 410 nm.
# The measured activity was compared with the activity of a reference formulation of the same protease sample without inhibitor and the respective relative activities of the modified proteases and the starting enzyme were determined. […] The results are presented in the following Tables 1 and 2 (the relative activities are each given).
# [2] = test system: protease according to SEQ ID NO: 3; assay: Inhibition measurements in the biochemical test (Example 2); conditions: 0.1 M Tris/HCl pH 8.6 with Brij35, suc-AAPF-pNA
# Method: The variants S166V and S166G/Q191R as well as the starting enzyme according to SEQ ID NO: 3 were expressed in a suitable expression system, further purified by means of ion exchange chromatography and prepared for the activity determinations in 0.1 M Tris/HCl buffer pH 8.6, comprising Brij35. To the formulations were added increased amounts of the reversible inhibitor 3-HPBA or BMA (see Tables 3 and 4) and the proteolytic residual activity of the respective protease was determined from the release of the chromophore para-nitroaniline (pNA) from the substrate suc-L-Ala-L-Ala-L-Pro-L-Phe-p-nitroanilide (suc-AAPF-pNA) as described above.
Molecule,"relative activity, 3-HPBA ([1]; Table 1)","relative activity, 4-FPBA ([1]; Table 1)","relative activity, Boric acid ([1]; Table 1)","relative activity, BMA ([1]; Table 2)","relative activity, Boric acid ([1]; Table 2)",further results
B1,83%,75%,83%,81%,79%,"proteolytic residual activity, 3-HPBA ([2]; 3-HPBA 0.05 mM): 93%; proteolytic residual activity, 3-HPBA ([2]; 3-HPBA 0.1 mM): 89%; proteolytic residual activity, 3-HPBA ([2]; 3-HPBA 0.5 mM): 81%; proteolytic residual activity, 3-HPBA ([2]; 3-HPBA 1 mM): 65%; proteolytic residual activity, 3-HPBA ([2]; 3-HPBA 1.5 mM): 56%; proteolytic residual activity, BMA ([2]; BMA 0.05 Gew.-%): 96%; proteolytic residual activity, BMA ([2]; BMA 0.5 Gew.-%): 95%; proteolytic residual activity, BMA ([2]; BMA 1.0 Gew.-%): 93%; proteolytic residual activity, BMA ([2]; BMA 1.7 Gew.-%): 94%; proteolytic residual activity, BMA ([2]; BMA 2.5 Gew.-%): 74%; proteolytic residual activity, BMA ([2]; BMA 3.3 Gew.-%): 73%; proteolytic residual activity, BMA ([2]; BMA 4.0 Gew.-%): 78%; proteolytic residual activity, BMA ([2]; BMA 5.0 Gew.-%): 64%"
B2,83%,61%,76%,–,–,–
B3,53%,71%,59%,–,–,"proteolytic residual activity, 3-HPBA ([2]; 3-HPBA 0.05 mM): 84%; proteolytic residual activity, 3-HPBA ([2]; 3-HPBA 0.1 mM): 87%; proteolytic residual activity, 3-HPBA ([2]; 3-HPBA 0.5 mM): 65%; proteolytic residual activity, 3-HPBA ([2]; 3-HPBA 1 mM): 51%; proteolytic residual activity, 3-HPBA ([2]; 3-HPBA 1.5 mM): 40%"
B4,58%,100%,68%,–,–,–
B5,–,–,–,43%,37%,–
B6,–,–,–,79%,47%,–
B7,–,–,–,80%,53%,–
B8,–,–,–,63%,76%,–
B9,–,–,–,80%,65%,–
B10,–,–,–,35%,57%,"proteolytic residual activity, BMA ([2]; BMA 0.05 Gew.-%): 88%; proteolytic residual activity, BMA ([2]; BMA 0.5 Gew.-%): 55%; proteolytic residual activity, BMA ([2]; BMA 1.0 Gew.-%): 42%; proteolytic residual activity, BMA ([2]; BMA 1.7 Gew.-%): 35%; proteolytic residual activity, BMA ([2]; BMA 2.5 Gew.-%): 38%; proteolytic residual activity, BMA ([2]; BMA 3.3 Gew.-%): 32%; proteolytic residual activity, BMA ([2]; BMA 4.0 Gew.-%): 36%; proteolytic residual activity, BMA ([2]; BMA 5.0 Gew.-%): 32%"
